Reference: patent publication US20250388666A1 (BRIGHAM AND WOMEN S HOSPITAL, published 2025)
Read-outs that look alike come from different tables or passages of the source.

Assays:
[1] = target: T1, CEACAM1 (Sino Biological) (human, UniProt P13688 35-428, limits assumed); experiment: SPR multi-cycle, IgG on Protein A
T1 construct: may be the same as CEACAM1-HIS; also called hCEACAM1; biotinylated soluble CEACAM1
T1 sequence: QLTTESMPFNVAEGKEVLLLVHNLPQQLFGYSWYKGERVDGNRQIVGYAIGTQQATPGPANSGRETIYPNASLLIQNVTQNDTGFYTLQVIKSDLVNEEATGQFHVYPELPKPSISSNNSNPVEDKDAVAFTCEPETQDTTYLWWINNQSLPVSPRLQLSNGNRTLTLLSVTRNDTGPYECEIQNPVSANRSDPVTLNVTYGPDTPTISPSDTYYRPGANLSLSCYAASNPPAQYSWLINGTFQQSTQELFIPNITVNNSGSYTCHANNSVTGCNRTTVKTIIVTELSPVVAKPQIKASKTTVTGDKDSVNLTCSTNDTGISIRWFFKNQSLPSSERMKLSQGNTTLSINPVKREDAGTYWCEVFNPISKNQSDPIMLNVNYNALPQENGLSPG

[2] = target: T1, CEACAM1 (Sino Biological); experiment: SPR single-cycle
How it was run: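 Humanized affinity-matured IgGs from crude supernatants captured on Protein A to ~100 RU, with CEACAM1 analyte injected at 25–100 nM (three-point, two-fold) in HBS-P+ without regeneration. 200 s association per injection, 300 s single dissociation; reference-channel and blank subtracted.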

[3] = target: T2, CEACAM3 (Sino Biological) (human, UniProt P40198 35-155, limits assumed); experiment: binding ELISA on plate-coated CEACAM (0.5 µg/mL); antibody at 1.67, 0.062 and 0.0069 µg/mL; signal as % of parent IgG on CEACAM1 at 1.67 µg/mL on the same plate
T2 construct: also called hCEACAM3
T2 sequence (looked up): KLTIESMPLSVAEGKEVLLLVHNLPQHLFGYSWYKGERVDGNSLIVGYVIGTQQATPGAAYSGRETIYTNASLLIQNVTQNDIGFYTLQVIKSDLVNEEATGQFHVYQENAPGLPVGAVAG

[4] = target: T3, CEACAM6 (Sino Biological) (human, UniProt P40199 35-320); experiment: as above
T3 construct: also called hCEACAM6
T3 sequence (looked up): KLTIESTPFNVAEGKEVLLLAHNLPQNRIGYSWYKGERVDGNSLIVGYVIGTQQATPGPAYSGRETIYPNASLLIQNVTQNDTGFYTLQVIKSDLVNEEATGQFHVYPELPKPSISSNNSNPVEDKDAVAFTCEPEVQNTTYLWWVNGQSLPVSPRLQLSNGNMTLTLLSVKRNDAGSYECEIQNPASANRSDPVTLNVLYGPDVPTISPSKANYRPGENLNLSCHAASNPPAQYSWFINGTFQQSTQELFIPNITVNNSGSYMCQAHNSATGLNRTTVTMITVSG

[5] = target: T4, CEACAM5 (Sino Biological) (human, UniProt P06731 35-685); experiment: as above
T4 construct: also called hCEACAM5
T4 sequence (looked up): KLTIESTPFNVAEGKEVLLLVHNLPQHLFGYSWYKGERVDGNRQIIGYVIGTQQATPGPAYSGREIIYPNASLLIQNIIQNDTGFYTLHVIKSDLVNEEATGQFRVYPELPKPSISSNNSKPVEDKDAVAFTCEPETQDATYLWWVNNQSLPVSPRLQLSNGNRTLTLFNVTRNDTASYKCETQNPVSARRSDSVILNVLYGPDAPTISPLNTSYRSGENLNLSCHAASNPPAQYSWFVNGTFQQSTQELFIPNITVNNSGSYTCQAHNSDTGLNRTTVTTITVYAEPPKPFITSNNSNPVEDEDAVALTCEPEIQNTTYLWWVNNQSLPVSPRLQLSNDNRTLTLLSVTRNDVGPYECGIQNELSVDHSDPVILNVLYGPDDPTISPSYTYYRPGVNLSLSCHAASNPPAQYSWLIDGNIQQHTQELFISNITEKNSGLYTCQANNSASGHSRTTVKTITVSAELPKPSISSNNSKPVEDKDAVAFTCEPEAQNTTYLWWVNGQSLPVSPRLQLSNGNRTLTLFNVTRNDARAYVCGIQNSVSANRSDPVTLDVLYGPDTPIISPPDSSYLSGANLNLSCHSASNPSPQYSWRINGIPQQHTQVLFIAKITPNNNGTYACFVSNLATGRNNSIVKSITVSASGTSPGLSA

[6] = target: T2, CEACAM3 (Sino Biological); experiment: as above; remark: listed apart in the source
[7] = target: T2, CEACAM3 (Sino Biological); experiment: as above; remark: listed apart in the source
[8] = target: T3, CEACAM6 (Sino Biological); experiment: as above; remark: listed apart in the source
[9] = target: T4, CEACAM5 (Sino Biological); experiment: as above; remark: listed apart in the source
[10] = target: T1, CEACAM1 (Sino Biological); experiment: phage binding assay

B1: He3/L20 (antibody, IgG4, V domains shown)
VH: EVQLLESGGGLVQPGGSLRLSCAASGFSFSDYYLYWVRQAPGKGLEWVATISVGGGQTSYADSVKGRFTISRDNSKNTLYLQMNSLRAEDTAMYYCTRALTYGPAWLAYWGQGTLVTVSS
VL: DIVMTQSPDSLAVSLGERATINCKSSQSLLNSANQKNYLAWYQQKPGQPPKLLIYFASTRESGVPDRFSGSGSGTDFTLTISSLQAEDVAVYYCQSHFPYPLTFGGGTKVEIK
notes: IgG4 S241P, kappa; also called He3 / 20
Kd [1]: 25.5 nM | koff [1]: 0.0078 s⁻¹ | kon [1]: 306000 M⁻¹ s⁻¹ | relative KD to Parent [1]: 3.34 ratio | Kd [2]: 74 nM | fold better than Parent (KD) [2]: 2.15 fold | binding result [3]: no binding (tested: 1.67 µg/mL) | binding result [4]: no binding (tested: 1.67 µg/mL) | binding result [5]: no binding (tested: 1.67 µg/mL)

B2: He9/L6 (antibody, IgG4, V domains shown)
VH: EVQLLESGGGLVQPGGSLRLSCAASGFSFSDYYLYWVRQAPGKGLEWVATISVGGGQTSYADSVKGRFTISRDNSKNTLYLQMNSLRAEDTAMYYCARAMYYGPAWFAYWGQGTLVTVSS
VL: DIVMTQSPDSLAVSLGERATINCKSSQSLLNSANQKNYLAWYQQKPGQPPKLLIYFASTRESGVPDRFSGSGSGTDFTLTISSLQAEDVAVYYCQSHYPFSFTFGGGTKVEIK
notes: IgG4 S241P, kappa; also called He9 / 6
Kd [1]: 39.6 nM | koff [1]: 0.00151 s⁻¹ | kon [1]: 38100 M⁻¹ s⁻¹ | relative KD to Parent [1]: 4.82 ratio | Kd [2]: 22 nM | fold better than Parent (KD) [2]: 7.1 fold | binding result [6]: no binding (tested: 1.67 µg/mL)

B3: Parent VH/L1 (antibody, IgG4, V domains shown)
VH: EVQLLESGGGLVQPGGSLRLSCAASGFSFSDYYLYWVRQAPGKGLEWVATISVGGGQTSYADSVKGRFTISRDNSKNTLYLQMNSLRAEDTAMYYCTRGLYYGPAWFAYWGQGTLVTVSS
VL: DIVMTQSPDSLAVSLGERATINCKSSQSLLNSANQKNYLAWYQQKPGQPPKLLIYFASTRESGVPDRFSGSGSGTDFTLTISSLQAEDVAVYYCQSHYPFYYTFGGGTKVEIK
notes: IgG4 S241P, kappa; also called VHp/L1; VH2 N56Q / 1
Kd [1]: 125 nM | koff [1]: 0.00413 s⁻¹ | kon [1]: 33100 M⁻¹ s⁻¹ | relative KD to Parent [1]: 0.68 ratio | binding result [7]: no binding (tested: 1.67 µg/mL) | binding result [8]: no binding (tested: 1.67 µg/mL) | binding result [9]: no binding (tested: 1.67 µg/mL) | Kd [2]: 41 nM | fold better than Parent (KD) [2]: 3.87 fold

B4: parent VH2 N56Q/Vκ4 S27(f)A scFv displayed on phage (scFv)
scFv: EVQLLESGGGLVQPGGSLRLSCAASGFSFSDYYLYWVRQAPGKGLEWVATISVGGGQTSYADSVKGRFTISRDNSKNTLYLQMNSLRAEDTAMYYCTRGLYYGPAWFAYWGQGTLVTVSSGGGGSGGGGSGGGGSDIVMTQSPDSLAVSLGERATINCKSSQSLLNSANQKNYLAWYQQKPGQPPKLLIYFASTRESGVPDRFSGSGSGTDFTLTISSLQAEDVAVYYCQQHYSTPWTFGGGTKVEIK
notes: also called parent scFv hyper phage; parent M13 helper phage; not shown: C-terminal Flag tag and gene III fusion
binding result [10]: binds
